# Assay results published in paper PMC9943660.
# Changes are numbered by the printed parent chain.
# T1: MutS D835R (Escherichia coli, UniProt P23909 1-853, D835R)
# T1 sequence: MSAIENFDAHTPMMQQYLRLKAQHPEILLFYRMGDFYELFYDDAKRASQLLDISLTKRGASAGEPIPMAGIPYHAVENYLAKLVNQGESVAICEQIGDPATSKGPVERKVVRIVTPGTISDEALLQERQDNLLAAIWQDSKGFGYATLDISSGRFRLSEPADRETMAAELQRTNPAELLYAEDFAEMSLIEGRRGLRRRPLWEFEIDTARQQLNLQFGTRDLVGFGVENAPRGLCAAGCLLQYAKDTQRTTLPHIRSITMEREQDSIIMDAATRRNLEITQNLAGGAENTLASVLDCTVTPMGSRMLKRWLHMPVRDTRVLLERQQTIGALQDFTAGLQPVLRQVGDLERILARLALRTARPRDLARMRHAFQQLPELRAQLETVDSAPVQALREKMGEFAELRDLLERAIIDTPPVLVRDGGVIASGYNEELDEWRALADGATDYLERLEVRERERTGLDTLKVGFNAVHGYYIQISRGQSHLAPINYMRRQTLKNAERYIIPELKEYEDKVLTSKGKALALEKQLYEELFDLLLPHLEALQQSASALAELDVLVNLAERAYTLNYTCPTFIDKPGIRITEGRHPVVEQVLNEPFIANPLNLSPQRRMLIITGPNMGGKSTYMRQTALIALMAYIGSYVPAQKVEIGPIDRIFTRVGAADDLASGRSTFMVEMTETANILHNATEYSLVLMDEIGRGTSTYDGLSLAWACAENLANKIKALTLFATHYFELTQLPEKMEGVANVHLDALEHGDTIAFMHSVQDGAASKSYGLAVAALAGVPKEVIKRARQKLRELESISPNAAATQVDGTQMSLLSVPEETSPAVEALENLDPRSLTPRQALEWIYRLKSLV
# T2: MutS WT (Escherichia coli, UniProt P23909 1-853)
# T2 sequence: T1 sequence with R835D
# B1: 21 bp GT mismatch (SPR) (dsDNA)
# DNA 1: TTTTTTTTTTTTTTTTTTTTAGTCGCCAGGGACCAGTGTCA
# DNA 2: TGACACTGGTCTCTGGCGACT
# Legend:
# Experiment in all cases: SPR
# MutS D835R = molecular target: T1, MutS D835R
# [1] = molecular target: MSH2 WT (MutSα);MSH6 WT (MutSα) (human;human, UniProt P43246;P52701 1-934;1-1360, |)
# [2] = molecular target: MSH2 dMBD2;MSH6 WT (MutSα) (human;human, UniProt P43246;P52701 125-934;1-1360, |)
# [3] = molecular target: MSH2 del2-7;MSH6 WT (MutSα) (human;human, UniProt P43246;P52701 1-934;1-1360, del2-7|)
# MutS WT = molecular target: T2, MutS WT
binder,measurement,setting,value
B1,Kd,MutS D835R,30.85 ± 0.08 nM
same,Kd,[1],1.08 ± 0.02 nM
same,Kd,[2],16.4 ± 0.86 nM
same,Kd,[3],3.28 ± 0.12 nM
same,binding result,MutS WT,binds
